The values that follow come from PMC2734569, “Functional mapping of the fission yeast DNA polymerase δ B-subunit Cdc1 by site-directed and random pentapeptide insertion mutagenesis” (BMC Molecular Biology, 2009).

Common to all, as to test: two-hybrid; LexA-Cdc1 bait (pBTM116 or pBTM116BN) with Gal4-Pol3 prey and co-expressed c-myc-tagged Cdc27 (pAA-Cdc27) in S. cerevisiae CTY10-5d; ONPG liquid culture beta-galactosidase assay, mean of triplicates, as percent of wild-type Cdc1
What all share (settings): partners not purified

In assay [1] the target is T1, Cdc1 (fission yeast DNA polymerase delta B-subunit), wild type (Schizosaccharomyces pombe, UniProt P87324 1-462).
T1 construct: DNA polymerase delta B-subunit Cdc1, S. pombe; cdc1+ cDNA on a 1.5 kb BamHI fragment from pBTM116-Cdc1, ORF 1386 bp; also called WT; LexA-Cdc1; source: yeast two-hybrid fusion, in S. cerevisiae CTY10-5d
T1 sequence (looked up): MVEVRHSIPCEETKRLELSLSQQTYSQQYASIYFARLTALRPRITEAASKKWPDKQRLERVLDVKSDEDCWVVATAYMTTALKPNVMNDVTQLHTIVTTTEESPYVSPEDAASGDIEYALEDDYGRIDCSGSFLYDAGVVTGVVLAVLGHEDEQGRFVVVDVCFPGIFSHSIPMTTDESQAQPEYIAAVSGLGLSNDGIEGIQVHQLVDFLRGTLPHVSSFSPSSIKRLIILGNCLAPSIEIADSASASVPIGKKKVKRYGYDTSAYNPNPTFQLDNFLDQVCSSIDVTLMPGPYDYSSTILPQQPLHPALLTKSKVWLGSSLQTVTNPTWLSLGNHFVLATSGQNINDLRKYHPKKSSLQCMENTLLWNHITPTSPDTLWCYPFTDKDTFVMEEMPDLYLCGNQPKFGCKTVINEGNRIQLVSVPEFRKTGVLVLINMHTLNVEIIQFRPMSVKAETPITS

A further assay addresses T2, Cdc1-J1 (Schizosaccharomyces pombe, UniProt P87324 1-462, Thr-GlyValProLeuThr-Gly).
T2 construct: Cdc1, S. pombe, with a pentapeptide inserted after residue 141; source: yeast two-hybrid fusion, in S. cerevisiae CTY10-5d
T2 sequence (looked up): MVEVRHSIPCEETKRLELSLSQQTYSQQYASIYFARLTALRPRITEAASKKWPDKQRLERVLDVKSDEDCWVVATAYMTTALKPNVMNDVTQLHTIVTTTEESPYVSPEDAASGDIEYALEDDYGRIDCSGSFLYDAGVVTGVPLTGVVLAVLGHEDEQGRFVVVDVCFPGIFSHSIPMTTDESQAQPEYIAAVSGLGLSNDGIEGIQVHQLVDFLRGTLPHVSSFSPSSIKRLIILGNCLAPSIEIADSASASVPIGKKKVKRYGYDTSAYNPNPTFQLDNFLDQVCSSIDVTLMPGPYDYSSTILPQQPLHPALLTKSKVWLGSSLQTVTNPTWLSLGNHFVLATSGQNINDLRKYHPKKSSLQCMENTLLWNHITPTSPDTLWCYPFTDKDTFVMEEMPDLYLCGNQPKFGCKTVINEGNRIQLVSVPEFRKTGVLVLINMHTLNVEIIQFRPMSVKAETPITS

In another assay the target is T3, Cdc1-J16 (Schizosaccharomyces pombe, UniProt P87324 1-462, Val-GlyGlyThrProVal-Asp).
T3 construct: Cdc1, S. pombe, with a pentapeptide inserted after residue 160; source: yeast two-hybrid fusion, in S. cerevisiae CTY10-5d
T3 sequence (looked up): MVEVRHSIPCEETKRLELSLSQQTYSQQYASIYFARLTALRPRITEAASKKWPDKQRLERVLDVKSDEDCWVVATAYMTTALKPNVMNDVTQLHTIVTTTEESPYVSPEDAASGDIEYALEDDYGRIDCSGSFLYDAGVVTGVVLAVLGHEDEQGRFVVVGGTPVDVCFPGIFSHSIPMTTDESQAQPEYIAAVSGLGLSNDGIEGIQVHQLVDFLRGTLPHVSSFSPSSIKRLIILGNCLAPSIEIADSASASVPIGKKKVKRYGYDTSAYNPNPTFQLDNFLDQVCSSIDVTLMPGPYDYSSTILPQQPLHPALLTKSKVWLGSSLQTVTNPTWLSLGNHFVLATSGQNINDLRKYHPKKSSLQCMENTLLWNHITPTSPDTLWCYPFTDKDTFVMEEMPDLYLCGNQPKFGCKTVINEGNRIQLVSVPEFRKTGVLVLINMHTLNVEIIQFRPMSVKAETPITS

A further assay concerns the target T4, Cdc1-A9 (Schizosaccharomyces pombe, UniProt P87324 1-462, Pro292Ala | Gly293Ala).
T4 construct: Cdc1, S. pombe, double point mutant (A1 and A2 combined); source: yeast two-hybrid fusion, in S. cerevisiae CTY10-5d
T4 sequence (looked up): T1 sequence (looked up) with P292A, G293A

Residue numbers refer to the chain shown, from its start. A value given as a limit tells only on which side of the number the result lay.

B1: Pol3 (fission yeast DNA polymerase delta catalytic subunit) (natural protein, Schizosaccharomyces pombe, UniProt P30316 1-1086, looked up)
chain: MTDRSSNEGVVLNKENYPFPRRNGSIHGEITDVKRRRLSERNGYGDKKGSSSKEKTSSFEDELAEYASQLDQDEIKSSKDQQWQRPALPAINPEKDDIYFQQIDSEEFTEGSVPSIRLFGVTDNGNSILVHVVGFLPYFYVKAPVGFRPEMLERFTQDLDATCNGGVIDHCIIEMKENLYGFQGNEKSPFIKIFTTNPRILSRARNVFERGEFNFEELFPVGVGVTTFESNTQYLLRFMIDCDVVGMNWIHLPASKYQFRYQNRVSNCQIEAWINYKDLISLPAEGQWSKMAPLRIMSFDIECAGRKGVFPDPSIDPVIQIASIVTQYGDSTPFVRNVFCVDTCSQIVGTQVYEFQNQAEMLSSWSKFVRDVDPDVLIGYNICNFDIPYLLDRAKSLRIHNFPLLGRIHNFFSVAKETTFSSKAYGTRESKTTSIPGRLQLDMLQVMQRDFKLRSYSLNAVCSQFLGEQKEDVHYSIITDLQNGTADSRRRLAIYCLKDAYLPQRLMDKLMCFVNYTEMARVTGVPFNFLLARGQQIKVISQLFRKALQHDLVVPNIRVNGTDEQYEGATVIEPIKGYYDTPIATLDFSSLYPSIMQAHNLCYTTLLDSNTAELLKLKQDVDYSVTPNGDYFVKPHVRKGLLPIILADLLNARKKAKADLKKETDPFKKAVLDGRQLALKVSANSVYGFTGATNGRLPCLAISSSVTSYGRQMIEKTKDVVEKRYRIENGYSHDAVVIYGDTDSVMVKFGVKTLPEAMKLGEEAANYVSDQFPNPIKLEFEKVYFPYLLISKKRYAGLFWTRTDTYDKMDSKGIETVRRDNCPLVSYVIDTALRKMLIDQDVEGAQLFTKKVISDLLQNKIDMSQLVITKALSKTDYAAKMAHVELAERMRKRDAGSAPAIGDRVAYVIIKGAQGDQFYMRSEDPIYVLENNIPIDAKYYLENQLSKPLLRIFEPILGEKASSLLHGDHTRTISMAAPSVGGIMKFAVKVETCLGCKAPIKKGKTALCENCLNRSAELYQRQVAQVNDLEVRFARLWTQCQRCQGSMHQDVICTSRDCPIFYMRIAEHKKLQQSVDLLKRFDEMSW
notes: DNA polymerase delta catalytic subunit Pol3, S. pombe; prey plasmid named pACT-Pol3 in the results and pGAD2F-Pol3 in the methods; also called Gal4-Pol3; pACT-Pol3; source: yeast two-hybrid fusion, in S. cerevisiae CTY10-5d
Turning to B1, the “two-hybrid beta-galactosidase activity, % of wild-type Cdc1” value in assay [1] is 100%; with Cdc1-J1, less than 1%; in the assay with Cdc1-J16, less than 1%; with Cdc1-A9, less than 1%.
